For twelve molecules, Kd, binding result and MFI results are on record in patent publication US20190367628A1 (Novartis, published 2019).

One assay deals with T1, recombinant human BCMA (human, UniProt Q02223 1-54, limits assumed).
T1 construct: The SET method says only 'recombinant human BCMA'; also called hBCMA; TNFRSF17
T1 sequence (looked up): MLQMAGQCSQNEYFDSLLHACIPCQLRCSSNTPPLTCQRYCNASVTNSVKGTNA
The assay is described as follows: solution equilibrium titration (SET, MSD); apparent KD; bispecific at a fixed concentration, BCMA titrated in solution.

Assay [1] addresses T2, recombinant cynomolgus monkey BCMA (cynomolgus monkey, UniProt A0A2K5UD97 1-53).
T2 construct: The SET method says only 'recombinant cynomolgus monkey BCMA'; also called Cyno BCMA; cynoBCMA
The assay is described as above.

The next assay concerns the target T3, Human BCMA-His-APP-Avi (human, biotinylated (captured on streptavidin plate; site not stated)).
T3 construct: also called His-APP-Avi-tagged human BCMA
T3 chain: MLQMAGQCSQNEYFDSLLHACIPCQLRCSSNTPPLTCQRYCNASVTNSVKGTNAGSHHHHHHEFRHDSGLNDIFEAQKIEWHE
Briefly: monoclonal phage ELISA, anti-M13-HRP, Abs450 against fold dilution of phage.

For assay [2], the target named is T4, human BCMA (antigen of the surface plasmon resonance measurement of PI-61) (human, UniProt Q02223 1-54, limits assumed).
T4 construct: Construct used in the SPR experiment is not described
T4 sequence (looked up): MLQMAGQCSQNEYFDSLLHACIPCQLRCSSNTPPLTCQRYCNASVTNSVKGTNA
The assay is described as follows: surface plasmon resonance.

Assay [3] has as its target T5, cynomolgus BCMA (antigen of the surface plasmon resonance measurement of PI-61) (cynomolgus, UniProt A0A2K5UD97 1-53).
T5 construct: Construct used in the SPR experiment is not described; also called cyno BCMA; not shown: The carrier or tag of the soluble cyno BCMA used in SPR
Briefly: surface plasmon resonance.

In assay [4] the target is T6, Cyno BCMA APP-Avi (cynomolgus, biotinylated (site not stated)).
T6 construct: It was used as soluble biotinylated antigen; also called biotinylated cyno BCMA
Briefly: flow cytometry of single yeast clone displaying the scFv, labelled with 20 nM biotinylated cyno BCMA, streptavidin/neutravidin-DyLight 633 detection. Here is the method: (§1) For the fourth round of screening, yeast from the third round output were pelleted, washed, and resuspended in 200 mL SD-ura broth with 1% raffinose, 2% galactose, and incubated for 22 hours at 20° C. to induce expression. […] The first sample was incubated with human BCMA for 45 min at room temperature, pelleted, washed twice with PBSF, and then resuspended in 1 mL PBSF (PBS with 0.1% BSA). The second sample was incubated with human BCMA for 45 minutes at room temperature. Both samples were pelleted, washed twice with PBSF, and resuspended in 200 uL of PBSF+a 1:30 dilution of rabbit anti-cMyc-FITC (Abcam)+a 1:100 dilution of neutravidin-dylight 633 (Invitrogen). Samples were incubated at 4 C for 30 min, pelleted, washed twice with PBSF, resuspended in 3 mL PBSF, filtered through 40 um filters, then sorted using flow cytometry on a FACS Aria cell sorter (Becton Dickinson Biosciences, San Jose, Calif.). Approximately 5×10⁵ yeast were isolated and resuspended in 4 mL SD-ura broth with 2% glucose and grown overnight at 30° C.
(§2) Each sample plate was used to create three test plates for flow cytometric analysis. […] Labeling was essentially as above for sorting, except using 1:200 each streptavidin-dylight 633 (Invitrogen) and neutravidin-dylight 633 (Invitrogen) in PBSF as secondary reagent and excluding any anti-cMyc antibody. The test plates were analyzed on a Cytoflex flow cytometer (Beckman Coulter, Brea, Calif.)

The target in assay [5] is T6, Cyno BCMA APP-Avi. The assay is described as follows: flow cytometry of single yeast clone displaying the scFv, labelled with 900 pM biotinylated cyno BCMA, streptavidin/neutravidin-DyLight 633 detection. As to the method:
as §1, §2

T6 sequence (chain, as listed by the source limits assumed): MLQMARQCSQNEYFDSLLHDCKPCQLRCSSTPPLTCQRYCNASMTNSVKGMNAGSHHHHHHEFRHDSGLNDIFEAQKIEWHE
T5 sequence (A0A2K5UD97 entry or part of it limits assumed): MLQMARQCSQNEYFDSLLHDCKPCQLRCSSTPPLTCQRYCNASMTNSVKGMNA

B1: BCMA-CD3 bispecific antibody AB3 (bispecific antibody)
chain 1: not shown
chain 2: QSALTQPASVSGSPGQSITISCTGTSSDVGGYNYVSWYQQHPGKAPKLMIYDVSNRLRGVSNRFSGSKSGNTASLTISGLQAEDEADYYCSSYTSSSALYVFGSGTKVTVLGQPKAAPSVTLFPPSSEELQANKATLVCLISDFYPGAVTVAWKADSSPVKAGVETTTPSKQSNNKYAASSYLSLTPEQWKSHRSYSCQVTHEGSTVEKTVAPTECS
chain 3: not shown
With B1, the Kd with recombinant human BCMA was found to be 0.0615 nM; in assay [1], 0.105 nM.

B2: PI-61 (monoclonal phage clone) (other)
VH: QVQLQESGGGVVQPGRSLRLSCAASGFTFSSYGMHWVRQAPGKGLEWVAVISYDGSNKYYADSVKGRFTISRDNSKNTLYLQMNSLRAEDTAVYYCGGSGYALHDDYYGLDVWGQGTLVTVSS
VL: QSALTQPASVSGSPGQSITISCTGTSSDVGGYNYVSWYQQHPGKAPKLMIYDVSNRPSGVSNRFSGSKSGNTASLTISGLQAEDEADYYCSSYTSSSTLYVFGSGTKVTVL
As to B2, the binding result with Human BCMA-His-APP-Avi was “binds”.

B3: PI-61 antibody (as measured by surface plasmon resonance) (antibody, V domains shown)
VH: QVQLQESGGGVVQPGRSLRLSCAASGFTFSSYGMHWVRQAPGKGLEWVAVISYDGSNKYYADSVKGRFTISRDNSKNTLYLQMNSLRAEDTAVYYCGGSGYALHDDYYGLDVWGQGTLVTVSS
VL: QSALTQPASVSGSPGQSITISCTGTSSDVGGYNYVSWYQQHPGKAPKLMIYDVSNRPSGVSNRFSGSKSGNTASLTISGLQAEDEADYYCSSYTSSSTLYVFGSGTKVTVL
notes: also called parental clone
B3: the Kd in assay [2] was approximately 34 nM; in assay [3] it was approximately 240 nM.

B4: H2/L2-36 scFv (scFv)
scFv: QAQLQSSGGGVVQPGRSLRLSCAASGFTFSSYGMHWVRQAPGKGLEWVAVISYKGSNKYYADSVKGRFTISRDNSKNTLYLQMNSLRAEDTAVYYCGGSGYALHDDYYGLDVWGQGTLVTVSSSGGGGSGGGGSGGGGSGGGGSQSALTQPASVSGSPGQSITISCTGTSSDVGGYNYVSWYQQHPGKAPKLMIYEVSNRLRGVSNRFSGSKFGNTASLTISGLQAEDEADYYCSSYTSSSTLYVFGSGTKVTVL
As to B4, the MFI in the assay with Cyno BCMA APP-Avi [4] was determined as 6430 MFI; with Cyno BCMA APP-Avi [5], 5590 MFI.

B5: H2/L2-88 scFv (scFv)
scFv: QVQLQSSEGGVVQPGRSLRLSCAASGFTFSSYGMHWVRQAPGKGLEWVAVISYKGSNKYYADSVKGRFTISRDNSKNTLYLQMNSLRAEDTAVYYCGGSGYALHDDYYGLDVWGQGTLVTVSSSGGGGSGGGGSGGGGSGGGGSQSALTQPASVSGSPGQSITISCTGTSSDVGGYNYVSWYQQHPGKAPKLMIYEVSNRLRGVSNRFSGSKFGNTASLTISGLQAEDEADYYCSSYTSSSALYVFGSGTKVTVL
Turning to B5, the MFI in the assay with Cyno BCMA APP-Avi [4] amounted to 4480 MFI; in the assay with Cyno BCMA APP-Avi [5], 6440 MFI.

B6: H2/L2-18 scFv (scFv)
scFv: QAQLQGSGGGVVQPGRSLRLSCAASGFTFSSYGMHWVRQAPGKGLEWVAVISYKGSHKYYADSVKGRFTISRDNSKNTLYLQMNSLRAEDTAVYYCGGSGYALHDDYYGLDVWGQGTLVTVSSSGGGGSGGGGSGGGGSGGGGSQSALTQPASVSGSPGQSITISCTGTSSDVGGYNYVSWYQQHPGKAPKLMIYDVSNRPWGVSNRFSGSKFGNTASLTISGLQAEDEADYYCSSYTSSSTLYVFGSGTKVTVL
As to B6, the MFI with Cyno BCMA APP-Avi [4] was 19900 MFI; with Cyno BCMA APP-Avi [5] it was 7180 MFI.

B7: H2/L2-80 scFv (scFv)
scFv: QVQLQSSGGGVVQPGRSLRLSCAASGFTFSSYGMHWVRQAPGKGLEWVAVISYTGSNKYYADSVKGRFTISRDNSKNTLYLQMNSLRAEDTAVYYCGGSGYALHDDYYGLDVWGQGTLVTVSSSGGGGSGGGGSGGGGSGGGGSQSALTQPASVSGSPGQSITISCTGTSSDVGGYNYVSWYQQHPGKAPKLMIYDVSNRAWGVSNRFSGSKFGNTASLTISGLQAEDEADYYCSSYTSSSALYVFGSGTKVTVL
As to B7, the values for the MFI with Cyno BCMA APP-Avi [4] and with Cyno BCMA APP-Avi [5] were 17900 MFI and 6540 MFI, respectively.

B8: H2/L2-47 scFv (scFv)
scFv: QVQLQSSEGGVVQPGRSLRLSCAASGFTFSSYGMHWVRQAPGKGLEWVAVISYKGSNKYYADSVKGRFTISRDNSKNTLYLQMNSLRAEDTAVYYCGGSGYALHDDYYGLDVWGQGTLVTVSSSGGGGSGGGGSGGGGSGGGGSQSALTQPASVSGSPGQSITISCTGTSSDVGGYNYVSWYQQHPGKAPKLMIYDVSNRPWGVSNRFSGSKFGNTASLTISGLQAEDEADYYCSSYTSSSTLYVFGSGTKVTVL
For B8, the MFI with Cyno BCMA APP-Avi [4] came out at 14200 MFI; with Cyno BCMA APP-Avi [5], 5930 MFI.

B9: H2/L2-83 scFv (scFv)
scFv: QAQLQGSGGGVVQPGRSLRLSCAASGFTFSSYGMHWVRQAPGKGLEWVAVISYKGSNKYYADSVKGRFTISRDNSKNTLYLQMNSLRAEDTAVYYCGGSGYALHDDYYGLDVWGQGTLVTVSSSGGGGSGGGGSGGGGSGGGGSQSALTQPASVSGSPGQSITISCTGTSSDVGGYNYVSWYQQHPGKAPKLMIYEVSNRLRGVSNRFSGSKFGNTASLTISGLQAEDEADYYCSSYTSSSTLYVFGSGTKVTVL
For the molecule B9, the results for the MFI with Cyno BCMA APP-Avi [4] and with Cyno BCMA APP-Avi [5] were 10700 MFI and 4880 MFI, respectively.

B10: H2/L2-20 scFv (scFv)
scFv: QAQLQSSGGGVVQPGRSLRLSCAASGFTVSSYGMHWVRQAPGKGLEWVAVISYTGSNKYYADSVKGRFTISRDNSKNTLYLQMNSLRAEDTAVYYCGGSGYALHDDYYGLDVWGQGTLVTVSSSGGGGSGGGGSGGGGSGGGGSQSALTQPASVSGSPGQSITISCTGTSSDVGGYNYVSWYQQHPGKAPKLMIYDVSNRLRGVSNRFSGSKFGNTASLTISGLQAEDEADYYCSSYTSSSALYVFGSGTKVTVL
Take B10: the figures for the MFI in the assay with Cyno BCMA APP-Avi [4] and with Cyno BCMA APP-Avi [5] were 20700 MFI and 7030 MFI, respectively.

B11: H2/L2-34 scFv (scFv)
scFv: QVQLQDSEGGVVQPGRSLRLSCAASGFTFSSYGMHWVRQAPGKGLEWVAVISYTGTKKYYADSVKGRFTISRDNSKNTLYLQMNSLRAEDTAVYYCGGSGYALHDDYYGLDVWGQGTLVTVSSSGGGGSGGGGSGGGGSGGGGSQSALTQPASVSGSPGQSITISCTGTSSDVGGYNYVSWYQQHPGKAPKLMIYDVSNRPWGVSNRFSGSKFGNTASLTISGLQAEDEADYYCSSYTSSSALYVFGSGTKVTVM
For B11, the MFI with Cyno BCMA APP-Avi [4] was 10400 MFI; with Cyno BCMA APP-Avi [5] it was 6050 MFI.

B12: H2/L2-68 scFv (scFv)
scFv: QAQLQSSEGGVVQPGRSLRLSCAASGFTFSSYGMHWVRQAPGKGLEWVAVISYRGFNKYYADSVKGRFTISRDNSKNTLYLQMNSLRAEDTAVYYCGGSGYALHDDYYGQDVWGQGTLVTVSSSGGGGSGGGGSGGGGSGGGGSQSALTQPASVSGSPGQSITISCTGTSSDVGGYNYVSWYQQHPGKAPKLMIYDVSNRLSGVSNRFSGSKFGNTASLTISGLQAEDEADYYCSSYTSSSTLYVFGSGTKVTVL
For B12, the MFI turned out to be 16200 MFI in the assay with Cyno BCMA APP-Avi [4] and 7380 MFI with Cyno BCMA APP-Avi [5].
